Measurements published in US20250154283A1 (published 2025).

T1: biotinylated cynomolgus monkey VWF cysteine knot (CK) domain construct (cynomolgus monkey, biotinylated in vitro (BirA) on the biotinylation tag; one N-glycan)
T1 construct: Expressed in HEK293 EBNA cells; disulfide-linked homodimer; also called cyno VWF CK; cyno VWF CK domain; not shown: in vitro biotinylation tag, HRV-3C site and 3 VWF residues before the CK domain
T1 chain: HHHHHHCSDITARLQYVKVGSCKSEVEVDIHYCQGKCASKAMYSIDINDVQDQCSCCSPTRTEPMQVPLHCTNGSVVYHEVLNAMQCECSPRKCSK

T2: biotinylated human VWF cysteine knot (CK) domain construct (human, biotin on the in vitro biotinylation tag (residue not stated); one N-glycan)
T2 construct: Disulfide-linked homodimer; also called biotinylated human VWF CK domain; human VWF CK domain construct
T2 chain: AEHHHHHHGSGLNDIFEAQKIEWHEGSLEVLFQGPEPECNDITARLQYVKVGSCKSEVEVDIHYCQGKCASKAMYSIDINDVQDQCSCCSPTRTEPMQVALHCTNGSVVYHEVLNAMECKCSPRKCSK


Experiments:
[1] = target: T1, biotinylated cynomolgus monkey VWF …; test: SPR, scFv captured via anti-SV5, CK domain injected, pH 7.4, apparent Kd;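 also: scFvs from crude yeast supernatants printed on an amine-coupled anti-SV5 lawn, Kd computed as koff over kon, likely overestimating affinity because the CK construct is dimeric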
Description: (§1) Briefly, a sensor chip was activated and coupled with an anti-SV5 mouse monoclonal antibody using amine coupling. The soluble scFvs in crude yeast supernatants were printed on the anti-SV5 lawn. […] From the measured association (kₒₙ) and dissociation (koff) rate constants, an apparent equilibrium dissociation constant (Kd=koff/kₒₙ) was estimated. Due to the dimeric state of the CK construct and consequent possibility for simultaneous binding of captured scFv to both monomers in the CK dimer, the SPR setup was expected to overestimate the binding affinity.

[2] = target: T3, biotinylated human VWF cysteine knot (CK) domain construct (human, UniProt P04275 2724-2813, biotinylated in vitro (BirA) on the biotinylation tag; one N-glycan); test: as above
T3 construct: Expressed in HEK293 EBNA cells; disulfide-linked homodimer; also called human VWF CK; human VWF CK domain; not shown: in vitro biotinylation tag, HRV-3C site and 3 VWF residues before the CK domain

[3] = target: T3, biotinylated human VWF cysteine knot …; test: SPR, scFv captured via anti-SV5, CK domain injected, pH 5.5, apparent Kd;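 also: scFvs from crude yeast supernatants captured on chip-bound anti-SV5 antibody, Kd computed as koff divided by kon, dimeric CK construct likely makes affinity appear higher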
Description: as §1

[4] = target: T2, biotinylated human VWF cysteine knot …; test: SPR, scFv captured on anti-SV5, pH 7.4
Description: as §1

Kd [1] [nM]	Kd [2] [nM]	Kd [3] [nM]	binding result [4]	Binder
2.67	7.56	1.33		4761_Lib8_scFv (scFv, VH-linker-VL; not shown: C-terminal 3xFLAG and SV5 tags) scFv: EVQLVESGGGLVQPGRSLRLSCAASGFTFSSDTMHWVRQAPGKGLEWVSAISSSGDHTDYADSVEGRFTISRDNAKNSLYLQMNSLRAEDTAVYYCAREGLRGYYFDYWGQGTLVTVSSSGGSTITSYNVYYTKLSSSGTDIQMTQSPSSLSASVGDRVTITCRASQGISGHLAWYQQKPGKAPKLLIYAASALQSGVPSRFSGSGSGTDFTLTISSLQPEDVATYYCQQSHSLPWTFGGGTKVEIK
0.205	0.051	0.018		Lib1_P1_A9_scFv (scFv, VH-linker-VL; not shown: C-terminal 3xFLAG and SV5 tags) scFv: QVQLVQSGAEVKKPGASVKVSCKVSGDTLSSYGIHWVRQAPGKGLEWMGGSIPSFGTAIYAQKFQGRVTMTEDTSTDTAYMELSSLKSEDTAVYYCTSEGPWLPFFSFDYWGQGTLVTVSSSGGSTITSYNVYYTKLSSSGTDIQMTQSPSSVSASVGDRVTITCRASQGISRNLAWYQQKPGKAPKLLIYKASSLASGVPSRFSGSGSGTDFTLTISSLQPEDFANYYCQQSFSTPVTFGGGTKVEIK
0.052	0.077	0.03		1675_Lib1_scFv (scFv, VH-linker-VL; not shown: C-terminal 3xFLAG and SV5 tags) scFv: QVQLVQSGAEVKKPGASVKVSCKVSGVTLTSSAISWVRQAPGKGLEWMGGITPIFGTPIYAQKFQGRVTMTEDTSTDTAYMELSSLKSEDTAVYYCATDYGYPFWAFDIWGQGTMVTVSSSGGSTITSYNVYYTKLSSSGTDIQMTQSPSSVSASVGDRVTITCRASQGIYSALAWYQQKPGKAPKLLIYESSKRPSGVPSRFSGSGSGTDFTLTISSLQPEDFANYYCEQYASSPPTFGGGTKVEIK
			binds	9621_Lib8_scFv (scFv, not shown: small tags and cut ends) scFv: EVQLVESGGGLVQPGRSLRLSCAASGFSFSMYAMHWVRQAPGKGLEWVSAISPSGDATDYADSVEGRFTISRDNAKNSLYLQMNSLRAEDTAVYYCARGMQDYGHYYYYYMDVWGKGTTVTVSSSGGSTITSYNVYYTKLSSSGTDIQMTQSPSSLSASVGDRVTITCRASQDISTSLAWYQQKPGKAPKLLIYGASSLETGVPSRFSGSGSGTDFTLTISSLQPEDVATYYCQQGYIAPRTFGGGTKVEIK
1.8	6.56	21.6		9312_Lib8_scFv (scFv, VH-linker-VL; not shown: C-terminal 3xFLAG and SV5 tags) scFv: EVQLVESGGGLVQPGRSLRLSCAASGFSLSTYDMHWVRQAPGKGLEWVSAISSSGDTRDYADSVEGRFTISRDNAKNSLYLQMNSLRAEDTAVYYCARAFWGGDAFDIWGQGTMVTVSSSGGSTITSYNVYYTKLSSSGTDIQMTQSPSSLSASVGDRVTITCRASQTIGYWLAWYQQKPGKAPKLLIYGASTLEGGVPSRFSGSGSGTDFTLTISSLQPEDVATYYCQHSYSAPPTFGGGTKVEIK
5.24	9.25	1.79		17561_Lib6_scFv (scFv, VH-linker-VL; not shown: C-terminal 3xFLAG and SV5 tags) scFv: EVQLVQSGAEVKKPGASVKVSCKASGYTFTDLPISWVRQAPGQGLEWMGWINPYTGDTNYAQKLQGRGTMTTDPSTSTAYMELRSLRSDDTAVYYCARDGVILGYYYYYGMDVWGQGTTVTVSSSGGSTITSYNVYYTKLSSSGTESALTQPASVSGSPGQSITISCTGTDLGSKSVSWYQQHPGKAPKLMIYDNFNRPSGVSNRFSGSKSGNTASLTISGLQAEDEADYYCSSRTVSGTYVFGGGTKLTVL
0.032	0.073	0.029		Lib1_P1_G3_scFv (scFv, VH-linker-VL; not shown: C-terminal 3xFLAG and SV5 tags) scFv: QVQLVQSGAEVKKPGASVKVSCKVSGYTSRQYIHWVRQAPGKGLEWMGWVTPIFGTTNYAQKFQGRVTMTEDTSTDTAYMELSSLKSEDTAVYYCAREWTGTTAFDIWGQGTLVTVSSSGGSTITSYNVYYTKLSSSGTDIQMTQSPSSVSASVGDRVTITCRASQDIGHYLAWYQQKPGKAPKLLIYAASNRASGVPSRFSGSGSGTDFTLTISSLQPEDFANYYCQQGYSAPYGFGGGTKVEIK
			binds	9301_Lib8_scFv (scFv, not shown: small tags and cut ends) scFv: EVQLVESGGGLVQPGRSLRLSCAASGFNFHNYDMHWVRQAPGKGLEWVSAISGSGYTADYADSVEGRFTISRDNAKNSLYLQMNSLRAEDTAVYYCAKSHSSGWSSAFDIWGQGTMVTVSSSGGSTITSYNVYYTKLSSSGTDIQMTQSPSSLSASVGDRVTITCRASQTIGYWLAWYQQKPGKAPKLLIYDASVPESGVPSRFSGSGSGTDFTLTISSLQPEDVATYYCQQTLSSPWTFGGGTKVEIK
			binds	8226_Lib8_scFv (scFv, not shown: small tags and cut ends) scFv: EVQLVESGGGLVQPGRSLRLSCAASGFNFHNYDMHWVRQAPGKGLEWVSAISGGAVSTDYADSVEGRFTISRDNAKNSLYLQMNSLRAEDTAVYYCARSSWYGGQIDFWGQGTLVTVSSSGGSTITSYNVYYTKLSSSGTDIQMTQSPSSLSASVGDRVTITCRASQDISGWLAWYQQKPGKAPKLLIYAASSLQDGVPSRFSGSGSGTDFTLTISSLQPEDVATYYCQQSYRIPSTFGGGTKVEIK
			binds	Lib8_P4_C10_scFv (scFv, not shown: small tags and cut ends) scFv: EVQLVESGGGLVQPGRSLRLSCAASGFNFHNYDMHWVRQAPGKGLEWVSAISGSSDTMDYADSVEGRFTISRDNAKNSLYLQMNSLRAEDTAVYYCVRASWYGTFFDYWGQGTLVTVSSSGGSTITSYNVYYTKLSSSGTDIQMTQSPSSLSASVGDRVTITCRASQDISGWLAWYQQKPGKAPKLLIYAASSLQDGVPSRFSGSGSGTDFTLTISSLQPEDVATYYCQQSYRIPSTFGGGTKVEIK
			binds	1081_Lib8_scFv (scFv, not shown: small tags and cut ends) scFv: EVQLVESGGGLVQPGRSLRLSCAASGFNFHNYDMHWVRQAPGKGLEWVSAISGGAVSTDYADSVEGRFTISRDNAKNSLYLQMNSLRAEDTAVYYCARSSWYGGQIDFWGQGTLVTVSSSGGSTITSYNVYYTKLSSSGTDIQMTQSPSSLSASVGDRVTITCRASESVSSWLAWYQQKPGKAPKLLIYGASTLEGGVPSRFSGSGSGTDFTLTISSLQPEDVATYYCQQAYRTPVTFGGGTKVEIK
			binds	1374_Lib8_scFv (scFv, not shown: small tags and cut ends) scFv: EVQLVESGGGLVQPGRSLRLSCAASGVDFSTYAMHWVRQAPGKGLEWVSAISSSGAYTDYADSVEGRFTISRDNAKNSLYLQMNSLRAEDTAVYYCATDRGPFSGYGTQGWFDPWGQGTLVTVSSSGGSTITSYNVYYTKLSSSGTDIQMTQSPSSLSASVGDRVTITCRASQTIRSYLAWYQQKPGKAPKLLIYGASDLQSGVPSRFSGSGSGTDFTLTISSLQPEDVATYYCQQYANFPITFGGGTKVEIK
			binds	1405_Lib8_scFv (scFv, not shown: small tags and cut ends) scFv: EVQLVESGGGLVQPGRSLRLSCAASGVDFSTYAMHWVRQAPGKGLEWVSAISSSGAYTDYADSVEGRFTISRDNAKNSLYLQMNSLRAEDTAVYYCATDRGPFSGYGTQGWFDPWGQGTLVTVSSSGGSTITSYNVYYTKLSSSGTDIQMTQSPSSLSASVGDRVTITCRASRDITSYLAWYQQKPGKAPKLLIYHASTLEAGVPSRFSGSGSGTDFTLTISSLQPEDVATYYCQQYGDFPPTFGGGTKVEIK
3.46	4.97	0.52		Lib6_P3_A4_scFv (scFv, VH-linker-VL; not shown: C-terminal 3xFLAG and SV5 tags) scFv: QVQLVQSGAEVKKPGASVKVSCKVSGDTLSNYAIHWVRQAPGKGLEWMGGINPNAGTTIYAQKFQGRVTMTEDTSTDTAYMELSSLKSEDTAVYYCARDSSSWCPVGYYYYYMDVWGKGTTVTVSSSGGSTITSYNVYYTKLSSSGTDIQMTQSPSSVSASVGDRVTITCRASQSIGDFLAWYQQKPGKAPKLLIYDASHLQTGVPSRFSGSGSGTDFTLTISSLQPEDFANYYCQQTSTIPPTFGGGTKVEIK
1.74	6.37	5.02		Lib1_P1_A5_scFv (scFv, VH-linker-VL; not shown: C-terminal 3xFLAG and SV5 tags) scFv: QVQLVQSGAEVKKPGASVKVSCKVSGDTLSNYAIHWVRQAPGKGLEWMGGINPNAGTTIYAQKFQGRVTMTEDTSTDTAYMELSSLKSEDTAVYYCARDSSSWCPVGYYYYYMDVWGKGTTVTVSSSGGSTITSYNVYYTKLSSSGTDIQMTQSPSSVSASVGDRVTITCRASQSIGDFLAWYQQKPGKAPKLLIYDASHLQTGVPSRFSGSGSGTDFTLTISSLQPEDFANYYCQQTSTIPPTFGGGTKVEIK
0.517	5.02	0.984		Lib4_P2_D1_scFv (scFv, VH-linker-VL; not shown: C-terminal 3xFLAG and SV5 tags) scFv: QVQLVQSGAEVKKPGASVKVSCKVSGDTLSNYAIHWVRQAPGKGLEWMGGINPNAGTTIYAQKFQGRVTMTEDTSTDTAYMELSSLKSEDTAVYYCARDSSSWCPVGYYYYYMDVWGKGTTVTVSSSGGSTITSYNVYYTKLSSSGTDIQMTQSPSSVSASVGDRVTITCRASQSIGDFLAWYQQKPGKAPKLLIYDASHLQTGVPSRFSGSGSGTDFTLTISSLQPEDFANYYCQQTSTIPPTFGGGTKVEIK
			binds	Lib4_P2_H3_scFv (scFv, not shown: small tags and cut ends) scFv: QVQLQESGPGLVKPSQTLSLTCTVSGSTFGDYAWSWIRQPPGKGLEWIGYINHIGNADYNPSLKSRVTMSVDTSKNQFSLKVNSVTAADTAVYYCARDGVESPEVPNYYYYGMDVWGQGTTVTVSSSGGSTITSYNVYYTKLSSSGTEIVMTQSPATLSLSPGERATLSCRASHSIGSNLAWYQQKPGQAPRLLIYDATNRAPGIPARFSGSGSGTDFTLTISSLEPEDFAVYYCQQSYTNPTFGGGTKVEIK
